Legend:
[1] = molecular target: T1, PD-1/PD-L1 engagement (hPD-L1-overexpressing Raji B cells, hPD-1-overexpressing Jurkat T cells) (Homo sapiens, UniProt Q9NZQ7); assay: IL-2 production in PD-L1 Raji B / PD-1 Jurkat T cell co-culture with SEE; type: cell-based; settings: 25 pg/ml SEE, 24 h co-culture, IL-2 ELISA of supernatants; read-out: EC50 of restored T cell activation (IL-2)
T1 construct: expressed in transfected cells; host or cells: Raji B cells (PD-L1) co-cultured with Jurkat T cells (PD-1)
T1 sequence (Q9NZQ7 19-290): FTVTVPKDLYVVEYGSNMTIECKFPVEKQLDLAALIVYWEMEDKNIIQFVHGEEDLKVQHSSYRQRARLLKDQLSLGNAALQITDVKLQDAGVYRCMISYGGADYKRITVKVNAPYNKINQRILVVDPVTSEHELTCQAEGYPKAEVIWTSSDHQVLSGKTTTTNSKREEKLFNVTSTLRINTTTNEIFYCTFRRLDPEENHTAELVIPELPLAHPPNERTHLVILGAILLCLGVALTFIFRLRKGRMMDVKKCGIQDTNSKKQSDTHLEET
Protocol: (§1) B, PD-L1-overexpressing Raji B cells were pre-incubated with a dilution series of α-PD-L1 compounds in the presence of 25 pg/ml SEE for 1 h and then co-cultured in a 1:1 ratio with PD-1-overexpressing Jurkat T cells for 24 h. Supernatants were collected, and IL-2 levels were measured using ELISA. EC50 was calculated using a 4-parameter logistic function in GraphPad Prism 9.0.0. Data are representative of five independent experiments performed in duplicates, with error bars indicating the standard deviation. C, PD-L1-overexpressing Raji B cells were pre-incubated with 2 nM of α-PD-L1 compounds in the presence of 25 pg/ml SEE for 1 h and then co-cultured in a 1:1 ratio with PD-1-overexpressing Jurkat T cells for 18 h. Cells were collected and stained with BV421-conjugated anti-human CD69 antibody. […] Cells were measured with a BD LSRFortessa instrument (Fig. S9). Data are represented as median fluorescence intensity (MFI). Error bars indicate the standard deviation. D, histograms indicate the percentage of CD69-expressing cells (gated above the basal CD69 expression in the absence of SEE; no SEE). Data were analyzed with FlowJo 10.4.1 and are representative of three independent experiments performed in duplicates. MFI comparison was carried out using a one-way ANOVA test in GraphPad Prism 9.0.0. ∗∗ indicates p-value < 0.01; ns = not significant.

PD-L1 [2] = tested on: PD-L1; design: method as in http://en.atagenix.com/product_detail-23647.html, 30; settings: indirect ELISA; ref http://en.atagenix.com/product_detail-23647.html, 30; read-out: published EC50, indirect ELISA; cited from earlier work
[3] = molecular target: T1, PD-1/PD-L1 engagement (hPD-L1-overexpressing Raji B cells, hPD-1-overexpressing Jurkat T cells); assay: Membrane CD69 expression in PD-L1 Raji B / PD-1 Jurkat T cell co-culture with SEE; type: cell-based; settings: 2 nM compound, 18 h co-culture; for overall expression of CD69 compared with non-treated samples: MFI, one-way ANOVA; for % CD69 (percentage of CD69-expressing cells): gated above basal CD69 without SEE
Protocol: as §1
Co-culture for analysis of CD69 expression was set up similarly as above, except that cells were incubated for 18 h in the presence of 2 nM of all compounds. Next, cells were collected by centrifugation (600g, 6 min) and washed once with 200 μl PBS. Corresponding wells were stained with 100 μl of 1:100 BV421-anti-human CD69 antibody (BD Biosciences, cat# 562884) or 100 ng/well isotype control antibody (BD Biosciences cat# 562438) in PBS for 30 min at 4 °C. Afterwards, cells were washed three times with 200 μl PBS followed by viability staining using 100 μl of 1:1000 Zombie NIR fixable viability kit (Biolegend, cat# 423106) in PBS. Finally, the measurement was carried out on an LSRFortessa Flow Cytometer (Becton, Dickinson and Company) and analyzed with FlowJo 10.4.1. The cell population was gated based on their forward and side scatter properties, followed by gating for single and viable cells. The Gating strategy is explained in the Fig. S9.

PD-L1 [4] = settings: read-out: published Kd; cited from earlier work

EC50 [1]	overall expression of CD69 compared with non-treated samples [3]	% CD69 (percentage of CD69-expressing cells) [3]	Substance	EC50 (PD-L1 [2])	Kd (PD-L1 [4])
600 pM	substantial increase	36±1%	durvalumab: FDA-approved PD-L1-targeting monoclonal antibody	~320 pM	–
–	–	–	avelumab: FDA-approved PD-L1-targeting monoclonal antibody	–	40 pM
300 pM	substantial increase	33±4%	atezolizumab: FDA-approved PD-L1-targeting monoclonal antibody	–	–

From paper PMC11154707, “Polymer-based antibody mimetics (iBodies) target human PD-L1 and function as a potent immune checkpoint blocker” (The Journal of Biological Chemistry, 2024)
